Source: the DeepSol protein solubility set

test: soluble on expression in E. coli; label from the status in PepcDB or PDB records

Soluble on expression in E. coli, soluble:
MGQVEVIDRRQSVFGDDIQLQKRSSSYEIISNGVFLMSTENGRSEREMVTLGAQHMKNAVHSVLIGGLGVGITADEAVHLNDHVQVHVVEIEPSVVEWQYRYLYPFSNQALEHERTAIIISDIQQWLRTNERTYDLICLDTDNGPDWMVHKQNASLYGKIGLELVRERVRVGGAVSFWSASASESFLHELETLFDRVYEHAVSISHTLPPDYVYVACRDLEHHHHHH
MGRDRISELPDGLLNHILMYLHIEESIRTSVLSSRWRKLWLKVPGLDVNVHDFPADGNLFESLMDKFLEVNRGRLQNFKLNYESNLYYLMDRFVPWIATVVDRGIQHLDVTATDCPPWTIDFMPANICKSKTLVSLKLVNVGLDTPKFVVSLPCLKIMHLEDIFYSPLIAENLISGCPVLEDLTIVRNHEDFLNFLRVMSQTLKNFRLTFDWGMGSNDFSVEIDAPGLKYMSFRDSQSDRIVVKNLSSLVKIDLDTEFNLKFGLGSPLEPEDLTKRDIIRDFLTGISSVKHMIISHPTLEVLYRYSKIGQLPKFHNLYHLQAVFSSSLLQLLPAFLEICPNLKNLILDYSISAEPEQIDFTNLPRCLISTLEYVEIKQLTMREESGIKLVKYFLENSAVLKKLTLSFIDSPMTNQESEIYMQLLTSTKRSRGCHVLIL
MGRPRVARLDRERIAEAALELVDRDGDFRMPDLARHLNVQVSSIYHHAKGRAAVVELVRHRVVREIDGSAFERLPWDEAFSEWARSYRAAFSRHPTAIRLLATETVRDPGSLSVYHSAAAGLRGAGFPDDHIMAVITAAENFLLGAALDAAAPEVMIEADSTTTDDALTRALAAAPRGPERAEQAFELGLAALLAGFHHLLQECGAVQR
MGSCMKWDYGEMEDFSVSASGLFITNEGNFQYSNATLSYYDPATCEVENEVFYRANGFKLGDVAQSMVIRDGIGWIVVNNSHVIFAIDINTFKEVGRITGFTSPRYIHFLSDEKAYVTQIWDYRIFIINPKTYEITGYIECPDMDMESGSTEQMVQYGKYVYVNCWSYQNRILKIDTETDKVVDELTIGIQPTSLVMDKYNKMWTITDGGYEGSPYGYEAPSLYRIDAETFTVEKQFKFKLGDWPSEVQLNGTRDTLYWINNDIWRMPVEADRVPVRPFLEFRDTKYYGLTVNPNNGEVYVADAIDYQQQGIVYRYSPQGKLIDEFYVGLEHHHHHH

Soluble on expression in E. coli, not soluble:
MGQGAPLFADKGGEIAALMRGAYFVAHNVDFDLPFLQAELERAGWPPFAGPTIDTVELARIVLPTAESYKLGDLARQLGLRHDRPHQADSDAEVTAKLFIALLKRLSRLPLMTLEQLRGLARHLKSDIYLLLDAVIAKKRNKAPADRAVAVYRGIALKQPAPEPDESDRRPALASFAAFCEQEPPLPLPGYKRRAGQWEMMRLVYEALSTSQHALIEAGTGLGKSLAYLIPAAFFACEQQERVVISTHTLQLQEQLIRRDWPVLRQIAPFPLRVAVLKGKQNYLSLDKFASFLSEPSDTYDAALLKCQVLVWLLETDSGDLDELNVSSGARLLLSALAIGEEEDGGRHHFFARAKERSERADVVITNHALLLHDLTGPAPLLPPFRHLIIDEAHRLEDAAARCFGEQIGYVSFRLLTAKIAQTIAKWQEAEQDAPNGALVRCQQRLEELQFEGDELFRLLRRYALDKKPARAGRCRYRFSPTDEQSRAWQAAVELCWRLRDLAAALSAEAKPLLSADTSGDFPPSALLSADLAALNRQMAALVRLLTEKEPGVVRWIEADEKGAANAVRLYSQPVDLADFFADQLFMKKRSVVLTSATLTVRGRFTYMAARLGLEDFYPLCRSFPPPFRYEEQAALFVPADMPLVSAVPLEDYAEAVAASVLAIARRLGRRVLVLFPSYELLKLTVDALKTEEEGEPFVLIAQGVQSGSPAKLLRTFLQFEHAVLFGTSSFWEGVDLPGSALDVLVIARLPFAPPDDPVMEAKSERIRLEGGDPFSELALPEAVLRFKQGFGRLIRTEDDKGAVFVLDRRLMASPYGADFLASLPPLSVHEGALSELLDKAETWLS
MGQNDLVKTLRMNYLFDFYQSLLTNKQRNYLELFYLEDYSLSEIADTFNVSRQAVYDNIRRTGDLVEDYEKKLELYQKFEQRREIYDEMKQHLSNPEQIQRYIQQLEDLE
MGSDKIHHHHHHAADGEGRGELSPKIKAGDLESKLIVPKNNGLKITGTFLDEISHDIPHQNWGEKEWDLDFQHMKRIGIDTVIMIRSGYRKFMTYPSPYLLKKGCYMPSVDLVDMYLRLAEKYNMKFYFGLYDSGRYWDTGDLSWEIEDNKYVIDEVWKMYGEKYKSFGGWYISGEISRATKGAIDAFRAMGKQCKDISNGLPTFISPWIDGKKAIMGTGKLTREDAVSVQQHEKEWNEIFDGIHEVVDACAFQDGHIDYDELDAFFTVNKKLADKYGMQCWTNAESFDRDMPIRFLPIKFDKLRMKLEAAKRAGYDKAITFEFSHFMSPQSAYLQAGHLYDRYREYFEIK
MGSDKIHHHHHHAADKRIDGNGNPETREIKISDYDEITFVGSADFEYEQSDKAPYLSVTIDENLFDYLVTEVEGGTLKIYPKSIKKGFNNNSYDLRPTVYKIKSNSKELKELNTVGSGSFIISKPTKVNRMEINMAGSGNVELRGPVKGYKLECNMAGSGNIIAKDIQLDNLSCSLASSGEIEVIGTVDRASFNVAGSGEIKAFDCQARKAECNIASSGEISVYATQILDANIVGSGEIHYKGDPEISKSIMGSGSINKVK
MGSDKIHHHHHHAATVKLTIIKSDLDMKASGGTGTVEFAATGTVTATVNADWCQVIEVADHKVSISVDANTGYPGRSAQIVLTDGVSTQQATILQEGAIWKYNRDATYFTLTDAAEEVPVEMSSNLPIQVSIPADASQWLSYEMTSDGFKFIAKENLTGKIRSAIVKVTTGIREIEYALLQYDIDDLLGQWTGVVKVVATAFGINQVLSLEENTQIVKNPGGNGYIFQLPMTRLLGATIVLAVTYQDGALVITTPQQQNYALSDGQGGVMYGSIITKTDDGLYLQGKIILSPVLMNDGQVALAYITDAYMSMGLFKGRVPSTANYAGLSIDFPAILMQYAE
MGSDKIHHHHHHAAVLSGCEFNEDFCIRNGELVAWCDFSGIRETPPVPEERHIIAFPSGMDIPSGEQMTFTQDTLRQSIPQGEYQFLFYTGNYEVSDIRDYHEARLMARTDTLEGEVYISGVQKFCCSAGFSQRLEYQRPKRVPITPSAFVQRLNIQINVSGNITPLAGLQGTLTGISTGRYLVSRERTGNASVTSLFSRKPETDRWKTSLYAFGFNPAAENILSVKIEMDGKDSVFNEEQKVDLTPYLRGFDSDELSLELDLHIGKELTIGEPVVIPDWEDIPETELPNYN
MGSDKIHHHHHHACSDDDKVSISTVGITTTVDTTIEGLQLTGGTYTFENVNTSVKTDITYPAQSIELADGLYNVTFIGKGTYSQNGTPVEVDVQGVQQNVAVSGGSYKLELKVHVLNTGDPDFVIAEIFIPGTYNEAGKQYNGDQYIRIYNNSDKVLYADGLIFMESQFQTTQKYQSVDPDIMDEAIAVGSVVAVPGSGTDYPVQPGESFILCDNAINHKEANPNSIDLSKANFEWYIESKQDVDNPAVPNLDVYYCYSKTIWVLNKQGNRAYAIGRLPKSMTKEKYISDYAYNYTYIMQNGTASKPQSKYKFPNEWVIDAVNVGASNEWQWNVTSTGLDMGHTYIGMNNTVAENIGKCVMRKAAYKDGDREVLQDTNNSTVDFTPAATPSLFNK
MGSDKIHHHHHHADILNCILPAEMLTGTDIDYNRPYDKSLNAYPIYIEVNNGTDLTRLAPTFELTEGASIEPANGSTQNFTNPVRYTVTSEDKNWHRTYAINIHYPETKSIPTVFNFENVKTVPYNKNEYYVLYEAASGYSTLTWSSGNQGFALTGSGYTPNDFPTSISPNGRTGNCLQLITRKTGSLGTLVGMPIAAGNLFIGSFDIGSAMSDALSATKFGTTFYYEPIKLVGYYKYKAGPEFYENGESTNRKDVFNIYALFYEKTKDVQMLDGHIAKNNYEHENMVAAAVITDTHETSEWTRFELDFNYEHYGKTIDPQKLANGGYNVSIVLSASKDGDVFQGAPGSTLLIDDLELVCKQPLR
MGSDKIHHHHHHADSDDENSNFSSGITGMNLSAEVLKHQPMVEKYARENGISEYVNVLLAIIQVESGGTAEDVMQSSESLGLPPNSLDTESSIKQGCKYFASLLSSSKNQGIDDLNVAIQSYNYGGGYVGYVAGKGKKHTFNLAESFAREKSGGKKVTYTNPIAVAKNGGWRWNYGNMFYVELVNQYLTVPQVSGELAQKVMNEALKYQGWKYVYGGSNPNTSFDCSGLTQWCYGKAGISLPRTAQAQYDATQHLPLSQAKAGDLVFFHSTYNAGSYVTHVGIYVGNNQMYHAGDPIGYADLSSSYWQQHLIGAGRVKQ
MGSDKIHHHHHHADVRMPLIFGDHMVLQQDTKIAIFGWADAGETVEVVFAGQKVKTTADTDGTWRVNLKPIKTKKEGQTLTIAGKNKLVYSDVLVGDVWVASGQSNMEWGIKVRKEYADDISASEDPLLRLFFVPKNTSLEPLTDIEVPQGTSNPERAARWVLCTPEMLAKINGQGFSATAYYFARDMRAANGRPLGVIQSAWGGTRAEAWTSLSGLKQEPALAHYVAAYEKNVKDNPEILATYPQKQKEFDEAVREWDKTVGKEWNQAQKEWAIAVQAAQAAGKPAPPKPQPSVPRPPNPRKPNGGNNGPSNLFNAMISPLIPLSIKGVIWYQGEFNSGGSGKEYATLFSRMITDWREKWGIGDFPFVYVQLPNFEPVDPEPSVEGNGWRWVREGQLKALNLPNTAMAVTIDVGDPFDLHPVDKYDVGHRLALAARKLAYGEKIVGMGPLYKKMSVKGNKIILEFTNQGKKLVMGTSPYIPAGKPPHPKPTKLTGFGIAGADRKFVWADAVIEGNKVIVSSSEVAVPLAVRYGFSNSPRCNLYNEKGLPASPFRTDSWDK
MGSDKIHHHHHHADWKVGIQTWTFHNLTLMETLDKTQQLGMGYAEAFFFQELGAPFPKETYLNYDLSDDNCALLRHEFKIRGIKPIAFGVASYGTNEEWDKFFAFAHKIGAHIVTVEPELNQLDYIESLAKKYDMEVAIHNHPSPCIYASAEVVEKALKGRSPLMGVCADIGHWKRVGEDPLKNLQKLSGRIKVAHLKDLTDKMEDATWGTGILPVKAFVNELKRQHFNGLISIEYDDFKSDIQEIRNSLEFLQKCSK
MGSDKIHHHHHHAHELEANEKYPGKSVKAQTRKEIVTFFSESLSGKTTTFDAGKPLKLSEVEHYRDVVWQLWKEANDGFKEEKLIALDTLSSASTGYWKLPDSLEPNAVMPYYWGMKGTDEIGNELPLFLYLHGSGPKEREWSTGLNICRNFDDAPSVYFIPQIPNEGEYYRWWQKAKQFAWEKLLRQSLLLGKIDPNRVYVFGISEGGYGSQRLASFYADYWAAAGPMAGGEPLKNAPAENCSNIAFSLRTGDKDTGFYRNTLTGYVREAFDSLAHQHPGYFTHKIELIPGMGHSIDYRPTTPWLKQYVRNPYPKYVSWENFEMDGLYRKGFYNLYVKERSDEEGKSRTYYEMSISGNHISLKVDDVVYEATEKDQRWGIEMKFAKKYAQAHKGKVVIYLCDELVDLTEKVTLTVNGKKVFEGKVKADLKNMVNSCAVFFDPQRLYPAAIEVELK
MGSDKIHHHHHHALEENKEAKSLLEGIWLDDNTETALLRVKGDTLFYADAATAPVAFKIIGDSLITYGARTNGYKIEKQGEHIFWFHSAVGDVIRLHKSDTENDSLAFIHTREIPVYNEVIKKDSVVTYDNVRYRGYVYINPSKIKVMRPGVSEEGLGVDNVYYDNIIHICVYEGRKSLYAKDITKQMFKGVVPDDFLQWAILSDMDFMGVDSKGYHYQATVCIPDGASCYMVNITAGKDGGLAFELVR
